Reference: patent US20090258926A1 (CENTRE NATIONAL DE LA RECHERCHE SCIENTIFIQUE, published 2009)

Target: importin α of the cellular nuclear import machinery (endogenous, in Hs68 human fibroblasts)
Test: cell-based or functional assay

Binder	luciferase expression after 12 hrs in synchronized Hs68 cells, relative to expression after 48 hrs	transfection efficiency (luciferase) after 48 hrs relative to MPG
Ac-GALFLGFLGAAGSTMGAWSQPKKKRKV-cysteamide (not fully specified) [MPG peptide (wild-type MPG), tested as MPG/DNA complex with plasmid]	65%	–
Ac-GALFLGFLGAAGSTMGAWSQPKSKRKV-cysteamide (not fully specified) [MPG^ΔNLS peptide, tested as MPG^ΔNLS/DNA complex with plasmid]	–	72%
